Experimental data reported in patent US20070185028A1, “Compositions and methods for treatment of protein misfolding and protein aggregation diseases” (priority 2004, published 2007).
“Also recorded” adds a separate entry of the source.

What was measured:
Format in all cases: biochemical
Aβ = Aβ (Homo sapiens, UniProt P05067); test: Aβ Thioflavin T fluorescence (fibrillization, 50° C., 72 hours); conditions: 1:10 Aβ:peptide; for effect on the fibrillization of Aβ (ranking): 72 hrs; for Δfluorescence (Aβ): Thioflavin T, 50° C., 72 hours
Protocol: Aβ Thioflaviin T fluorescence. Aβ fibrils were grown in the presence and absence of αB crystallin and peptides in conditions similar to that previously described for the presence of αB crystallin. Bakthisaran et al., Biochem J, 2005. Peptides were dissolved to 9.1 mM in trifluorethanol (TFE) and diluted to 0.91 mM stock solutions in 50 mM PBS, 100 mM NaCl, pH 7.4. 3.5 mg of Thioflavin T was dissolved in 100 μl of 50 mM Glycine pH 8.5. A stock solution of 1 mg/ml (0.22 mM) Aβ was prepared. 20 μl Aβ, 50 μl chaperone, 2 μl Thioflavin T was mixed with 28 μl 50 mM PBS, 100 mM NaCl, pH 7.4. Fluorescence was read using a Beckman Coultier DTX 880 multimode detector. Samples were heated at 50° C. for 72 hours and fluorescence was read again.
(§1) The fibrillization of Aβ was measured as fluorescence of the fluorescent dye Thioflavin T from solutions containing 1:10 monomeric molar ratio of Aβ:peptide. In the absence of Aβ fibrils, Thioflavin T had little or no fluorescence. The fluorescence of the Thioflavin T bound to Aβ fibrils in the absence of any other molecule after 72 hrs was set to 100%. […] Fibril formation=ΔfluorescenceAβ (with chaperone)*100/ΔfluorescenceAβ (without chaperone).

transthyretin (TTR) = target: T1, transthyretin (TTR) (Homo sapiens, UniProt P02766); test: Transthyretin fibrillation ThT assay; conditions: for effect on TTR fibril formation, overall: five αB crystallin peptides and control
T1 construct: purchased Sigma-Aldrich
Protocol: The effect of the five αB crystallin peptides ST, DR, HG, LT, and ER on TTR fibrillation was measured using the ThT fluorescence assay (FIG. 26). The formation and inhibition of TTR fibrils was qualitatively verified by fluorescence and bright-field microscopy. The concentration of the peptides was varied relative to TTR to establish a concentration curve. In addition, the effect of a control neuropeptide (AT1) with no TTR fibril inhibition activity was measured and compared to the effect of the αB crystallin peptides on TTR fibril formation. The ThT fluorescence of 16 μM TTR alone incubated at 37° C. for 4 hrs, increased from ˜15,000 to ˜45,000 RFU. Addition of 3.2 μM αB crystallin peptides, ST, DR, LT, and HG decreased the ThT fluorescence of TTR by 15-70%. In contrast, 3.2 μM ER had no effect on TTR fibril formation. Increasing the concentration of the ER peptide to 16 μM decreased the ThT fluorescence of TTR by 60%. The negative control peptide AT1 had no effect on TTR fibrillation even at a concentration as high as 160 μM. All five αB crystallin peptides inhibited TTR fibrillation at sub-stoichometric and stoichometric concentrations (3.2 μM and 16 μM).
The Thioflavin T (ThT) fluorescence of TTR in the presence of varying concentrations of αB crystallin peptides and controls was measured. […] When the concentration of the peptides was increased to 16 μM (1:1::peptide:TTR), the αB crystallin peptides ST, DR, HG, LT and ER decreased the ThT fluorescence by 8-72%. When the concentration of the peptides was increased further to 80 μM ([…]), all of the five αB crystallin peptides ST, DR, HG, LT, and ER decreased the ThT fluorescence by 40-70%. […] The formation and inhibition of TTR fibrils was verified microscopically.
Transthyretin fibrillation ThT assays were performed as described previously. Hurshman et al., Biochemistry 43:7365-81, 2004; O'Nuallain and Wetzel, Proc Natl Acad Sci USA 99:1485-90, 2002. Peptides were dissolved to 2 mM in 0.25% DMSO and diluted accordingly, while TTR was dissolved in 200 mM KCl, 2 mM EDTA, 5 mM PBS, 200 mM sodium acetate, pH 4.4. For the 5::peptide:TTR assay, 10 μL of 160 μM peptide was mixed with 10 μL of 32 μM TTR, and 1 μL of 1 mM ThT. For the 1:1::peptide:TTR assay, 10 μL of 32 μM peptide was mixed with 10 μL of 32 μM TTR and 1 μL of 1 mM ThT. For the 1:5::peptide:TTR assay, 10 μL of 6.4 μM peptide was mixed with 10 μL of 32 μM TTR and 1 μL of 1 mM ThT. ThT fluorescence was measured using a Perkin Elmer Victor^3 V plate reader. Assays were performed in 384-well fluorescence plates in duplicates or triplicates. Samples were incubated at 37° C. ThT fluorescence was measured continuously for 150 minutes. The effect of the peptides and APS was calculated as percentage fibril formation relative to TTR alone (100%) at the end of 150 minutes.

γD crystallin = target: T2, γD crystallin (Homo sapiens, UniProt P07320); test: γD crystallin Thioflavin T fluorescence (fibrillization); conditions: 1:1 γD crystallin:peptide; for Δfluorescence (γD crystallin): Thioflavin T, 50° C., 72 hours
T2 sequence (P07320 2-174): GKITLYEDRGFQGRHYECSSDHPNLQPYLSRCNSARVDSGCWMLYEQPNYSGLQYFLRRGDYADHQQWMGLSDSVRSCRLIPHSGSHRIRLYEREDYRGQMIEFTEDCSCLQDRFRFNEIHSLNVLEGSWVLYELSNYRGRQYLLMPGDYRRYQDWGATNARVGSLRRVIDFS
Protocol: γD crystallin Thioflaviin T fluorescence. γD crystallin fibrils were formed in a similar way to that of γ crystalline. Meehan et al., J Biol Chem 279: 3413-3419, 2004. Peptides were dissolved to 9.1 mM in TFE and diluted to 0.91 mM stock solutions in 10% TFE, pH 2.0. 3.5 mg of Thioflavin T was dissolved in 100 μl of 50 mM Glycine pH 8.5. A stock solution of 1 mg/ml (0.22 mM) Aβ was prepared. 20 μl Aβ, 5 μl chaperone, 2 μl Thioflavin T was mixed with 73 μl 10% TFE, pH 2.0. Fluorescence was read using a Beckman Coultier DTX 880 multimode detector. Samples were heated at 50° C. for 72 hours and fluorescence was read again.
as §1, with “γD crystallin” for “Aβ”, “1:1” for “1:10”, “γD crystallin:peptide.” for “Aβ:peptide.”, “fibrils” for “Aβ fibrils,”, “formation=ΔfluorescenceγD crystallin” for “formation=ΔfluorescenceAβ”, “chaperone)*100/ΔfluorescenceγD crystallin” for “chaperone)*100/ΔfluorescenceAβ”

Sequence	effect on the fibrillization of Aβ (ranking) (Aβ)	Δfluorescence (Aβ) (Aβ)	effect on TTR fibril formation, overall (transthyretin (TTR))	Δfluorescence (γD crystallin) (γD crystallin)	effect on TTR fibril formation, overall (transthyretin (TTR); listed as HG)	decrease in ThT fluorescence of TTR (transthyretin (TTR); 3.2 μM, 16 μM TTR, 37° C.)	effect on the fibrillization of γD crystallin (ranking) (γD crystallin; 72 hrs)
DRFSVNLDVKHFS	strongest effect	264,396,672	strong inhibition	661,038,176	–	–	–
HGKHEERQDE	weakest effect	796,478,624	–	734,394,240	most effective inhibitor; also recorded: strong inhibition	–	–
ERTIPITRE	–	576,742,720	modestly inhibited	611,017,728	–	no effect	–
LTITSSLSSDGV	–	352,301,312	partially inhibited	675,352,992	–	–	–
STSLSPFYLRPPSFLRAP	–	478,389,568	partially inhibited	606,290,176	–	–	strongest effect
